The source of these data is US20090075929A1 (BOARD OF TRUSTEES OF THE UNIVERSITY OF ILLINOIS, published 2009).

Assay [1] deals with T1, wild-type MADD (wtMADD), YFP-tagged, expressed in HEK293 or HeLa cells (Homo sapiens (Human), UniProt Q8WXG6 1-1647, phosphorylated in cells at S70, T173 and T1041 (recognized by anti-phospho S70, T173 and T1041 antibodies)).
T1 construct: Exogenous MADD detected with anti-YFP antibody; Order of MADD and YFP is uncertain; also called YFP-MADD; exogenous MADD; not shown: YFP tag
Nature of the assay: co-IP with anti-IG20 antibody from HeLa cells expressing MADD-YFP, western blot; also not seen in the reverse IP with anti-caspase-8. The text has this:
(§1) These proteins were separated by SDS-PAGE and subjected to western blot analysis to probe for DISC components.
(§2) Samples were lysed, and the lysates were normalized for protein concentration and pre-cleared. […] Complexes were subjected to immunoblotting (WB, Western blot).

Assay [2] concerns the target T2, DR4 (death receptor 4, a TRAIL receptor), endogenous (UniProt O00220 24-468).
T2 construct: Endogenous protein immunoprecipitated or blotted from lysates of human cell lines; also called endogenous DR4; DRs
Nature of the assay: IP of DR4 from HeLa lysates, immunoblot for FADD. The text has this: DR4 and DR5 from HeLa and PA-1 cells respectively were immunoprecipitated and probed for known DISC components. […] Forty-eight-hour transduced HeLa cells and PA-1 cells were collected and lysed. Lysates were normalized for protein concentration, and DR4s/DR5s were immunoprecipitated using specific antibodies.

For assay [3], the target named is T1, wild-type MADD (wtMADD), YFP-tagged, …. Nature of the assay: co-IP from HeLa cells expressing MADD-YFP, western blot.
Source text: as §1, §2

B1: caspase-8 (pro-caspase-8, p55/53), endogenous (enzyme, UniProt Q14790 1-479, looked up)
chain: MDFSRNLYDIGEQLDSEDLASLKFLSLDYIPQRKQEPIKDALMLFQRLQEKRMLEESNLSFLKELLFRINRLDLLITYLNTRKEEMERELQTPGRAQISAYRVMLYQISEEVSRSELRSFKFLLQEEISKCKLDDDMNLLDIFIEMEKRVILGEGKLDILKRVCAQINKSLLKIINDYEEFSKERSSSLEGSPDEFSNGEELCGVMTISDSPREQDSESQTLDKVYQMKSKPRGYCLIINNHNFAKAREKVPKLHSIRDRNGTHLDAGALTTTFEELHFEIKPHDDCTVEQIYEILKIYQLMDHSNMDCFICCILSHGDKGIIYGTDGQEAPIYELTSQFTGLKCPSLAGKPKVFFIQACQGDNYQKGIPVETDSEEQPYLEMDLSSPQTRYIPDEADFLLGMATVNNCVSYRNPAEGTWYIQSLCQSLRERCPRGDDILTILTEVNYEVSNKDDKKNMGKQMPQPTFTLRKKLVFPSD
On to B1, for which the binding result in assay [1] is listed as “no binding”.

B2: FADD, endogenous (other, UniProt Q13158 1-208, looked up)
chain: MDPFLVLLHSVSSSLSSSELTELKFLCLGRVGKRKLERVQSGLDLFSMLLEQNDLEPGHTELLRELLASLRRHDLLRRVDDFEAGAAAGAAPGEEDLCAAFNVICDNVGKDWRRLARQLKVSDTKIDSIEDRYPRNLTERVRESLRIWKNTEKENATVAHLVGALRSCQMNLVADLVQEVQQARDLQNRSGAMSPMSWNSDASTSEAS
In the case of B2, the binding result is “binds” in assay [2] and “no binding” in assay [3].
